Experiment [1] has as its target T1, IGF-I (insulin-like growth factor I) (UniProt P05019 49-118).
T1 construct: Amine-coupled (70 RU) to a CM-5 biosensor chip; also added to HT-29 cells; also called IGF-1
The experiment is described as follows: SPR (BIAcore), IGF-I amine-coupled to CM5 chip; ratio against hIGFBP-2. How it is done:
(§1) The IGF surface was regenerated with 10 mM HCl.
(§2) The dissociation constant (KD) was determined from the calculation of kd/kₐ, where kₐ is the association rate and kd is the dissociation rate.

In experiment [2] the target is T2, IGF-II (insulin-like growth factor II) (UniProt P01344 25-91).
T2 construct: Amine-coupled (70 RU) to a CM-5 biosensor chip
T2 sequence (P01344 25-91 limits assumed): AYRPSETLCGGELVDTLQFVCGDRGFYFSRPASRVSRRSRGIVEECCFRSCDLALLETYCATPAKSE
The experiment is described as follows: SPR (BIAcore), IGF-II amine-coupled to CM5 chip; ratio against hIGFBP-2. How it is done:
as §1
(§3) Table 3. […] Data was analysed using BIAevaluation software 3.0 and fit to a Langmuir 1:1 binding model. The dissociation constant (KD) was determined from the calculation of kd/kₐ, where kₐ is the association rate and kd is the dissociation rate.

Experiment [3] addresses T2, IGF-II (insulin-like growth factor II). The experiment in a line: SPR (BIAcore) on immobilised IGF-II; text summing up Table 3. How it is done:
as §1, §3

Experiment [4] addresses T1, IGF-I (insulin-like growth factor I). The experiment is described as follows: SPR (BIAcore) on immobilised IGF-I; text summing up Table 2. How it is done: as §1, §2

Where a chain is given by its changes, count along the chain named. Names and notes keep the numbering of the source.

T1 sequence (P05019 49-118 limits assumed): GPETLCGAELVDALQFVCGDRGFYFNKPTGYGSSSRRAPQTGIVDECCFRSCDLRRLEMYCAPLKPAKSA

B1: K227AHis hIGFBP-2 (other, human)
chain: EVLFRCPPCTPERLAACGPPPVAPPAAVAAVAGGARMPCAELVREPGCGCCSVCARLEGEACGVYTPRCGQGLRCYPHPGSELPLQALVMGEGTCEKRRDAEYGASPEQVADNGDDHSEGGLVENHVDSTMNMLGGGGSAGRKPLKSGMKELAVFREKVTEQHRQMGKGGKHHLGLEEPKKLRPPPARTPCQQELDQVLERISTMRLPDERGPLEHLYSLHIPNCDAHGLYNLKQCKMSLNGQRGECWCVNPNTGKLIQGAPTIRGDPECHLFYNEQQEARGVHTQRMQHHHHHH
notes: mature
In the case of B1, the “Rel. KD (KD of hIGFBP-2/KD of hIGFBP-2 mutant)” value (“Rel. KD” for short) in experiment [1] turned out to be 1.34; in experiment [2], 1.27.

B2: K237AHis hIGFBP-2 (other, human)
chain: B1 chain with A227K, K237A
notes: mature
Turning to B2, the “Rel. KD” value in experiment [1] came to 2.29; in experiment [2] it was 2.9. Further, the “fold higher affinity than native hIGFBP-2” value in experiment [3] and in experiment [4] was roughly 2 fold throughout.

B3: K234AHis hIGFBP-2 (other, human)
chain: B1 chain with A227K, K234A
notes: mature; also called K234A hIGFBP-2; K234AHis IGFBP-2
In the case of B3, the “Rel. KD” value in experiment [1] was found to be 0.64; in experiment [2], 0.37.

B4: K180A K181AHis hIGFBP-2 (other, human)
chain: B1 chain with K180A, K181A, A227K
notes: mature; also called K180A, K181A mutation
B4: the entries for the “Rel. KD” value in experiment [1] and in experiment [2] were 0.87 and 0.68, respectively.

Values taken from patent publication US20060153853A1 (UNIVERSITY OF ADELAIDE, published 2006).
